Data reported in patent US20240150451A1.

Target: PHF-tau (paired helical filament tau; sarcosyl insoluble prep from human AD brain) (human) (UniProt P10636)
Assay: SPR (ProteOn), mAb on PHF-tau, bivalent analyte fit; apparent affinity (avidity)

Sequence of PHF-tau (paired helical filament tau; sarcosyl insoluble prep from human AD brain) (human) (P10636 other isoform, or with tags, fused parts or gaps limits assumed): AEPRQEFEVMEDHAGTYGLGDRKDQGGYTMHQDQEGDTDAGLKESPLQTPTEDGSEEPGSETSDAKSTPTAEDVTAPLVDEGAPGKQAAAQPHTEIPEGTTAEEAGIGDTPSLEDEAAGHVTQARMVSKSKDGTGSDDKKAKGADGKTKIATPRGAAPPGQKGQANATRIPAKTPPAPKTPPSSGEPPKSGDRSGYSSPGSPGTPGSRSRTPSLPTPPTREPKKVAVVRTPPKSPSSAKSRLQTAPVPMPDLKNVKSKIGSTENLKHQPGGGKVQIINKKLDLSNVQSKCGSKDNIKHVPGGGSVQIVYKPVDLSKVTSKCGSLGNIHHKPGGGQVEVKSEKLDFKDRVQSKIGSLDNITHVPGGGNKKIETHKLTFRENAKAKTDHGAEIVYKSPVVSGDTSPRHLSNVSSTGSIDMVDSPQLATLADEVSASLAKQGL

Kd: 0.291 nM
Substance: HT7 (reference mAb) (antibody)
